This test has as its system 293 cells. In words: G glycoprotein and Fkn binding to untransfected 293 control cells by flow cytometry. Further details: species or system human. The note with it: for percent positive staining of 293 cells: 10 nM ligand, representative experiment, FIG. 1. The procedure:
Purified G glycoprotein was examined for binding to 293-CX3CR1 cells^33. A pcDNA 3.1 plasmid containing the CX3CR1 gene and a neomycin resistance gene was used to stably transfect human embryonic kidney (HEK) cells. Neomycin resistance was used for selection and maintenance of plasmid transfection of human embryonic kidney cells.
All binding studies were done on ice and either G glycoprotein or human Fkn (R&D Diagnostics, Minneapolis, Minn.) were diluted between 1 nM-100 nM in PBS (GIBCO) containing 1% bovine serum albumin (Sigma) and incubated with the 293-CX3CR1 cells or 293 control cells for 30 min at 4° C. […] For inhibition studies, 100 pM-1 μM human Fkn or G glycoprotein was preincubated with the cells for 30 min at 4° C. Without washing, 100 pM of either Fkn or G glycoprotein was added and incubated for 30 min at 4° C. The cells were washed, blocked with FcγRIII blocking antibody (HB197) for 30 min on ice, washed and stained as appropriate with either an anti-G glycoprotein monoclonal antibody cocktail (132-5B, 132-5G, 130-2G, 232-IF) or a biotinylated anti-G glycoprotein monoclonal antibody cocktail (130-2G, 131-2G) or anti-Fkn monoclonal antibody (51637.11; R&D Diagnostics). Concentrations of 1 μg of anti-G glycoprotein monoclonal antibody (131-2G)^34, rabbit anti-CX3CR1 sera^33, and anti-CX3CR1 monoclonal antibody containing 10 μg/ml heparin were used in all experiments. […] Staining was detected with absorbed FITC-goat anti-mouse (H & L chain) monoclonal antibody (PharMingen, San Diego, Calif.) or streptavidin-PE (PharMingen) using flow cytometry (FACScan, Becton-Dickinson, Mountain View, Calif.). A 76 amino acid ^125I-Fkn polypeptide comprising the […] (NEN, Boston, Mass.) was used in radioligand studies^33. As a control, the void volume following purified G glycoprotein passaged over an anti-G glycoprotein antibody (130-2G) affinity column was examined by flow cytometry for binding to either 293 or 293-CX3CR1 cells.
The receptor for Fkn, CX3CR1, was previously identified and characterized using anti-CX3CR1 rabbit antiserum and CX3CR1-transfected human embryonic kidney cells (293-CX3CR1 cells)^33.

Consider “Fkn: CX3C chemokine fractalkine (R&D), ligand of CX3CR1 [reference compound]”, for which the “percent positive staining of 293 cells” value stood at 8%.

B1: G glycoprotein: purified G glycoprotein isolated from RSV/A2-infected Vero cells (protein)
chain: MSKNKDQRTAKTLERTWDTLNHLLFISSCLYKLNLKSVAQITLSILAMIISTSLIIAAIIFIASANHKVTPTTAIIQDATSQIKNTTPTYLTQNPQLGISPSNPSEITSQITTILASTTPGVKSTLQSTTVKTKNTTTTQTQPSKPTTKQRQNKPPSKPNNDFHFEVFNFVPCSICSNNPTCWAICKRIPNKKPGKKTTTKPTKKPTLKTTKKDPKPQTTKSKEVPTTKPTEEPTINTTKTNIITTLLTSNTTGNPELTSQMETFHSTSSEGNPSPSQVSTTSEYPSQPSSPPNTPRQ
As to B1, the “percent positive staining of 293 cells” value stood at 16%. Besides, under “wheat germ lectin column fraction (G, F glycoprotein) or purified recombinant polyhistidine-tagged G glycoprotein”, the “binding to 293 cells” value is 18%.

The values above are taken from US8173131B2, “Compositions and methods for modulating RSV infection and immunity” (PerkinElmer Health Sciences, Inc., priority 2000, dated 2012).
